Measurements reported in the Immune Epitope Database (IEDB).

Legend:
Test in all cases: IEDB peptide-MHC binding, purified MHC/competitive/radioactivity; filed as Kd, often an IC50 or EC50 that approximates it; ≥ and ≤ were set here for values at or beyond the usual limits of such assays
HLA-A*03:01 = target: HLA-A*03:01
HLA-A*11:01 = target: HLA-A*11:01
HLA-A*31:01 = target: HLA-A*31:01
HLA-A*33:01 = target: HLA-A*33:01
HLA-A*68:01 = target: HLA-A*68:01
[1] = source organism: Vaccinia virus WR
[2] = source organism: SARS coronavirus Tor2
[3] = source organism: Mammarenavirus choriomeningitidis
[4] = source organism: Lymphocytic choriomeningitis virus (strain Armstrong)
[5] = source organism: Dengue virus 3 Martinique/1243/1999
[6] = source organism: Mammarenavirus guanaritoense
[7] = source organism: Dengue virus 1 Brazil/97-11/1997
[8] = source organism: Dengue virus 4 Dominica/814669/1981
[9] = source organism: Dengue virus 2 Jamaica/1409/1983
[10] = source organism: Mammarenavirus machupoense

| Sequence | Kd (HLA-A*03:01; [1]) | Kd (HLA-A*11:01; [1]) | Kd (HLA-A*31:01; [1]) | Kd (HLA-A*33:01; [1]) | Kd (HLA-A*68:01; [1]) | other results |
| --- | --- | --- | --- | --- | --- | --- |
| ATIQRFSSLR | 0.0234 µM | 0.00464 µM | 0.000626 µM | 0.244 µM | 0.00684 µM |  |
| RQVVNVITTK |  |  |  |  |  | Kd (HLA-A*03:01; [2]): 0.114 µM; Kd (HLA-A*11:01; [2]): 0.216 µM; Kd (HLA-A*31:01; [2]): 2.67 µM; Kd (HLA-A*33:01; [2]): ≥ 39.6 µM; Kd (HLA-A*68:01; [2]): 0.305 µM |
| SAYLISIFMH |  |  |  |  |  | Kd (HLA-A*03:01; [3]): 1.23 µM; Kd (HLA-A*11:01; [3]): 5.63 µM; Kd (HLA-A*31:01; [3]): 0.659 µM; Kd (HLA-A*33:01; [3]): 2.95 µM; Kd (HLA-A*68:01; [3]): ≥ 70.1 µM |
| LMRFITAETH |  |  |  |  |  | Kd (HLA-A*31:01; [4]): 0.411 µM; Kd (HLA-A*33:01; [4]): 5.45 µM; Kd (HLA-A*68:01; [4]): 3.54 µM |
| LFDFVNFVK | 0.812 µM | 0.145 µM | 0.798 µM | 9.1 µM | 0.128 µM |  |
| TTVITPMLR |  |  |  |  |  | Kd (HLA-A*33:01; [5]): 0.0367 µM; Kd (HLA-A*68:01; [5]): 0.0118 µM |
| DWTDGSRGYR |  |  |  |  |  | Kd (HLA-A*31:01; [6]): 0.918 µM; Kd (HLA-A*33:01; [6]): 1.17 µM |
| MLEGETKLYK | 0.0206 µM | 0.0634 µM | ≥ 50.4 µM | ≥ 70 µM | 9.18 µM |  |
| ASANLAATK |  |  |  |  |  | Kd (HLA-A*03:01; [2]): 0.0771 µM; Kd (HLA-A*11:01; [2]): 0.0144 µM; Kd (HLA-A*31:01; [2]): 1.03 µM; Kd (HLA-A*33:01; [2]): ≥ 77.7 µM; Kd (HLA-A*68:01; [2]): 0.0783 µM |
| LTWLGLNSR |  |  |  |  |  | Kd (HLA-A*31:01; [7]): ≥ 63.3 µM; Kd (HLA-A*33:01; [7]): 0.0438 µM |
| VFLRKLTSR |  |  |  |  |  | Kd (HLA-A*31:01; [8]): 0.0668 µM; Kd (HLA-A*33:01; [8]): 0.178 µM |
| SVKGLTPSK |  |  |  |  |  | Kd (HLA-A*03:01; [2]): 0.00756 µM; Kd (HLA-A*11:01; [2]): 0.0132 µM; Kd (HLA-A*31:01; [2]): 0.171 µM; Kd (HLA-A*33:01; [2]): 9.27 µM; Kd (HLA-A*68:01; [2]): 0.18 µM |
| DILGVLTIK | 0.714 µM | 1.12 µM | 12.6 µM | 0.194 µM | 0.343 µM |  |
| KMVEPWLSSK |  |  |  |  |  | Kd (HLA-A*03:01; source organism: Dengue virus 4 Philippines/H241/1956): 0.0115 µM |
| NTSVDLYAR |  |  |  |  |  | Kd (HLA-A*11:01; [6]): 2.19 µM |
| KSIHLTKTDK | 0.107 µM | 0.0198 µM | 0.313 µM | ≥ 70 µM | 0.416 µM |  |
| VVVGAGGVGK |  |  |  |  |  | Kd (HLA-A*03:01; source organism: Homo sapiens): 0.082 µM; Kd (HLA-A*11:01; source organism: Homo sapiens): 0.0124 µM |

| Sequence | Kd (HLA-A*03:01; [1]) | Kd (HLA-A*11:01; [1]) | Kd (HLA-A*31:01; [1]) | Kd (HLA-A*33:01; [1]) | Kd (HLA-A*68:01; [1]) | other results |
| --- | --- | --- | --- | --- | --- | --- |
| RNPYENILYK |  |  |  |  |  | Kd (HLA-A*03:01; [4]): 7.04 µM; Kd (HLA-A*11:01; [4]): 3.48 µM; Kd (HLA-A*31:01; [4]): 16.4 µM; Kd (HLA-A*33:01; [4]): ≥ 37.8 µM; Kd (HLA-A*68:01; [4]): 5.51 µM |
| LLMPILTLTR |  |  |  |  |  | Kd (HLA-A*03:01; [2]): 0.571 µM; Kd (HLA-A*11:01; [2]): 0.199 µM; Kd (HLA-A*31:01; [2]): 0.00553 µM; Kd (HLA-A*33:01; [2]): 0.262 µM; Kd (HLA-A*68:01; [2]): 0.0897 µM |
| VSMTYLYNK | 0.0725 µM | 0.00136 µM | 0.00276 µM | 0.806 µM | 0.0827 µM |  |
| IMQAGKRSLR |  |  |  |  |  | Kd (HLA-A*31:01; [9]): 0.0058 µM; Kd (HLA-A*33:01; [9]): 0.219 µM |
| LSYIYSEIK | 0.026 µM | 0.0273 µM | 8.6 µM | 1.59 µM | 0.252 µM |  |
| FLLRHYYNK | 0.00731 µM | 0.0271 µM | 0.0764 µM | 2.05 µM | 1.34 µM |  |
| MQKESDDYIK |  |  |  |  |  | Kd (HLA-A*03:01; [2]): 13.2 µM; Kd (HLA-A*11:01; [2]): 0.364 µM; Kd (HLA-A*31:01; [2]): 5.79 µM; Kd (HLA-A*33:01; [2]): ≥ 70 µM; Kd (HLA-A*68:01; [2]): 1.55 µM |
| DLPVWLAYR |  |  |  |  |  | Kd (HLA-A*33:01; [9]): 0.004 µM |
| PSIFLIITK | 0.166 µM | 0.036 µM | 9.35 µM | 10.9 µM | 4.13 µM |  |
| SVLCVKKFY | 13.3 µM | 0.372 µM | 7.98 µM | 12.9 µM | 2.1 µM |  |
| FMALVAFLR |  |  |  |  |  | Kd (HLA-A*31:01; [9]): 0.0169 µM; Kd (HLA-A*33:01; [9]): 0.0107 µM; Kd (HLA-A*68:01; [9]): 0.0506 µM |
| EIMDKEQLLK | 1.32 µM | 0.0878 µM | ≥ 50.9 µM | 9.85 µM | 0.00542 µM |  |
| ISSKQYPAGR | 1.02 µM | 0.128 µM | 0.00562 µM | 0.317 µM | 0.00859 µM |  |
| ILSDIISAEK | 0.000501 µM | 0.000829 µM | 0.0145 µM | 1.38 µM | 0.00429 µM |  |
| SIENKHQRR | ≥ 23.9 µM | 6.37 µM | 0.165 µM | 0.696 µM | 0.627 µM |  |
| KAINVLRGFR |  |  |  |  |  | Kd (HLA-A*31:01; [9]): 0.000824 µM |
| DSVKSILKWH |  |  |  |  |  | Kd (HLA-A*03:01; [10]): ≥ 70 µM; Kd (HLA-A*11:01; [10]): ≥ 69.7 µM; Kd (HLA-A*31:01; [10]): 2.65 µM; Kd (HLA-A*33:01; [10]): ≥ 33.1 µM; Kd (HLA-A*68:01; [10]): ≥ 70.1 µM |
